Biological target: wild type CFTR (cystic fibrosis transmembrane conductance regulator) chloride channel (human, UniProt P13569 1-1480, phosphorylated by PKA in the assay (50 units/ml PKA and 2 mM ATP in the cis solution); sites not listed for the assay)
Assay: cell-based or functional assay

Sequence of wild type CFTR (cystic fibrosis transmembrane conductance regulator) chloride channel (P13569 whole entry): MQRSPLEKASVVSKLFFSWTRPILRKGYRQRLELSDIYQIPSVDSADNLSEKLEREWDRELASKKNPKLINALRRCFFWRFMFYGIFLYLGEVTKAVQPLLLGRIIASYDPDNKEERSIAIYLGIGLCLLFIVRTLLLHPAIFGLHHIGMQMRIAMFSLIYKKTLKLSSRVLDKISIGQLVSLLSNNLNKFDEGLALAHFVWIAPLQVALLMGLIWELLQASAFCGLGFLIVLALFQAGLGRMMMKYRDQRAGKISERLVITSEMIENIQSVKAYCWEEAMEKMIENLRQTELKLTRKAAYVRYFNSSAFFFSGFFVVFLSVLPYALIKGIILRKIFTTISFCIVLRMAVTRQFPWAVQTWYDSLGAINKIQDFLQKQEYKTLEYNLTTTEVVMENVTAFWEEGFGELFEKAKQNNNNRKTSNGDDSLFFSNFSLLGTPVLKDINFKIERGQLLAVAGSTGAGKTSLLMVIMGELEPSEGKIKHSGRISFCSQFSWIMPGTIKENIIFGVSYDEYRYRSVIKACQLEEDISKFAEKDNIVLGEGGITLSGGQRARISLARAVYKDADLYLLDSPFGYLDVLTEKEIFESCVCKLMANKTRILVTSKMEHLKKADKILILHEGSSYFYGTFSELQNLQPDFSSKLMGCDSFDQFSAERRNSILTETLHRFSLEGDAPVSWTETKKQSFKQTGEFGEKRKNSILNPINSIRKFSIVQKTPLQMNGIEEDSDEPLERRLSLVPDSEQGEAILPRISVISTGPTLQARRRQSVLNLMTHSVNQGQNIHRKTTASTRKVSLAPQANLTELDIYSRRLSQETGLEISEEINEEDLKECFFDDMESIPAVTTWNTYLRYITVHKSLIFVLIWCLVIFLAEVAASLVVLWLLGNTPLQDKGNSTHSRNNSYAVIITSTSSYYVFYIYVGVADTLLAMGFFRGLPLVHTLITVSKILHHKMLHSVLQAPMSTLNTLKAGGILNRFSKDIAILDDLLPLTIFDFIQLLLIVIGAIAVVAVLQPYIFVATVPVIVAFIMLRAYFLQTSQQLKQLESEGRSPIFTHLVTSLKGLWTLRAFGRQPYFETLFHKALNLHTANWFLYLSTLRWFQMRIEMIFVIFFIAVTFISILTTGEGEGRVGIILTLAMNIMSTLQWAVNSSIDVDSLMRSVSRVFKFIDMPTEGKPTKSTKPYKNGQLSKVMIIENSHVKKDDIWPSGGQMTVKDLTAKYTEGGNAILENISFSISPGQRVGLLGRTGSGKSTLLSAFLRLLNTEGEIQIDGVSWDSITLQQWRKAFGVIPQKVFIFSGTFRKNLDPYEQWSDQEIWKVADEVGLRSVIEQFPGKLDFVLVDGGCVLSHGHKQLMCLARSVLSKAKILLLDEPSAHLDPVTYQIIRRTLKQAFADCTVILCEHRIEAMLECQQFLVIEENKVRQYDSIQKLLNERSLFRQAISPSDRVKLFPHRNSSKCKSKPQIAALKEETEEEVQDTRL

open probability of single wt-CFTR channel in planar lipid bilayer: > 2 fold
Binder: GLEISEEINEEDLKECFFDDME [synthetic NEG2 peptide (22 amino acid peptide corresponding to CFTR amino acids 817-838)]

Source: patent US20040121957A1 (CASE WESTERN RESERVE UNIVERSITY, published 2004)
